The source of these data is PMC6557900 (Nature Communications, 2019).

Where no end group is shown, it is not given here. [ ]: non-standard residue; d: D form. pY = N[C@@H](Cc1ccc(OP(=O)(O)O)cc1)C(=O)O

Common to all, as to details: both partners purified
The target of assay [1] is T1, SOCS2-ElonginB-ElonginC complex, wild-type (human | , UniProt O14508 32-198; Q15370 1-104; Q15369 17-112). Kind of assay: SPR; biotinylated SBC (wild-type or mutant) immobilised, peptide injected at 0.08-60 μM; 20 mM HEPES pH 7.5, 150 mM NaCl, 1 mM TCEP, 0.005% Tween20, 10 °C; steady-state affinity, 1:1 model.
T1 sequence (O14508 32-198, chain 1 of 3): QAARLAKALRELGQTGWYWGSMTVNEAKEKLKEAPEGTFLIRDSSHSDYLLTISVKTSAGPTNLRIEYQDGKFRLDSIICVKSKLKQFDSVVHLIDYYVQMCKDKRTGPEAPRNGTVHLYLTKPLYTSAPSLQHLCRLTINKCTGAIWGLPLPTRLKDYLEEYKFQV
T1 sequence (Q15370 1-104, chain 2 of 3): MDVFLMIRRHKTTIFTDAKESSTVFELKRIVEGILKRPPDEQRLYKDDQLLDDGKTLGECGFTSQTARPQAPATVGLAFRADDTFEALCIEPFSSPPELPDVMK
T1 sequence (Q15369 17-112, chain 3 of 3): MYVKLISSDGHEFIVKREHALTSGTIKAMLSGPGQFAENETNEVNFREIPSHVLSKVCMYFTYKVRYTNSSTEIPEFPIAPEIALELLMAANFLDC
Assay [2] concerns the target T1, SOCS2-ElonginB-ElonginC complex, …. The assay can be described thus: 19F ligand-observed CPMG NMR displacement assay; peptide (GHR 10 μM, EpoR 50 μM) displaces the fluorinated pY analog spy molecule 3 (100 μM) from SBC (5 μM); 20 mM HEPES pH 8, 50 mM NaCl, 1 mM DTT, 20% D2O, 298 K.
The target of assay [3] is T2, SOCS2-ElonginB-ElonginC complex, wild-type (human | , UniProt O14508 32-198; Q15370 1-104; Q15369 17-112).
T2 construct: Untagged in ITC and NMR; also called SBC; wild-type SBC; source: E. coli BL21(DE3), co-expressed, purified (HisTrap, TEV cleavage, second HisTrap, SEC Superdex 75); not shown: His6, N-terminal, cleaved; copies: + +
Kind of assay: ITC; peptide (750 or 1500 μM) titrated into SBC (50 μM); 100 mM HEPES pH 7.5, 50 mM NaCl, 0.5 mM TCEP, 298 K; one-set-of-site model.
T2 sequence (O14508 32-198, chain 1 of 3): as the sequence (O14508 32-198, chain 1 of 3) above
T2 sequence (Q15370 1-104, chain 2 of 3): as the sequence (Q15370 1-104, chain 2 of 3) above
T2 sequence (Q15369 17-112, chain 3 of 3): as the sequence (Q15369 17-112, chain 3 of 3) above

The target of assay [4] is T2, SOCS2-ElonginB-ElonginC complex, …. Kind of assay: SPR; biotinylated SBC (wild-type or mutant) immobilised, peptide injected at 0.08-60 μM; 20 mM HEPES pH 7.5, 150 mM NaCl, 1 mM TCEP, 0.005% Tween20, 10 °C; steady-state affinity, 1:1 model.
Assay [5] addresses T3, SOCS2(L106V)-ElonginB-ElonginC complex (human | , UniProt O14508 32-198; Q15370 1-104; Q15369 17-112, L106V).
T3 construct: also called SBC L106V; source: E. coli BL21(DE3), co-expressed, purified (as wild-type SBC); not shown: His6, N-terminal, cleaved; copies: + +
The assay is described as above.

In assay [6] the target is T4, SOCS2(C133Y)-ElonginB-ElonginC complex (human | , UniProt O14508 32-198; Q15370 1-104; Q15369 17-112, C133Y).
T4 construct: also called SBC C133Y; source: E. coli BL21(DE3), co-expressed, purified (as wild-type SBC); not shown: His6, N-terminal, cleaved; copies: + +
T4 sequence (O14508 32-198 C133Y, chain 1 of 3): as the sequence (O14508 32-198, chain 1 of 3) above, with C102Y counted along it
T4 sequence (Q15370 1-104, chain 2 of 3): as the sequence (Q15370 1-104, chain 2 of 3) above
T4 sequence (Q15369 17-112, chain 3 of 3): as the sequence (Q15369 17-112, chain 3 of 3) above
The description is as above.

T3 sequence (O14508 32-198 L106V, chain 1 of 3): as the sequence (O14508 32-198, chain 1 of 3) above, with L75V counted along it
T3 sequence (Q15370 1-104, chain 2 of 3): as the sequence (Q15370 1-104, chain 2 of 3) above
T3 sequence (Q15369 17-112, chain 3 of 3): as the sequence (Q15369 17-112, chain 3 of 3) above

B1: EpoR_pY426 peptide, alanine at pY(+5) (peptide)
chain: ASFE[pY]TILDAS-NH2
In turn, B1 registered a Kd in assay [1] of 8.9 µM. The inhibition constant (Ki) in assay [2] amounted to 6.9 µM.

B2: GHR_pY595 peptide, alanine at pY(+4) (peptide)
chain: PVPD[pY]TSIAIV-NH2
The molecule B2 returned a Kd in assay [1] of 6.7 µM. Moreover, the Ki in assay [2] came to 18.5 µM.

B3: EpoR_pY426 peptide, alanine at pY(+4) (peptide)
chain: ASFE[pY]TILAPS-NH2
The molecule B3 came in with a Kd in assay [1] of 18 µM. The molecule also gave a Ki in assay [2] of 14.1 µM.

B4: EpoR_pY426 peptide, alanine at pY(+3) (peptide)
chain: ASFE[pY]TIADPS-NH2
On to B4, for which binding in assay [1] was put at a Kd of 32.3 µM. In assay [2], this molecule came in with a Ki of 20.4 µM.

B5: EpoR_pY426 peptide, alanine at pY(+2) (peptide)
chain: ASFE[pY]TALDPS-NH2
B5 came in with a Kd in assay [1] of 30.8 µM. The same molecule registered a Ki in assay [2] of 17.2 µM.

B6: GHR_pY487 phosphopeptide (growth hormone receptor) (peptide)
peptide: NIDF[pY]AQVSDI-NH2
notes: growth hormone receptor (GHR), 11-residue peptide around pY487; source: synthetic peptide (solid-phase, Fmoc, Rink amide resin), HPLC purified
Consider B6, for which the Kd in assay [3] worked out at 2300 nM; in assay [4], 5.1 µM; in assay [5], 8.9 µM; in assay [6], 7.7 µM.

B7: EpoR_pY426 peptide, alanine at pY(+1) (peptide)
chain: ASFE[pY]AILDPS-NH2
modifications: N-terminus assumed
SMILES: CC[C@H](C)[C@H](NC(=O)[C@H](C)NC(=O)[C@H](Cc1ccc(OP(=O)(O)O)cc1)NC(=O)[C@H](CCC(=O)O)NC(=O)[C@H](Cc1ccccc1)NC(=O)[C@H](CO)NC(=O)[C@H](C)N)C(=O)N[C@@H](CC(C)C)C(=O)N[C@@H](CC(=O)O)C(=O)N1CCC[C@H]1C(=O)N[C@@H](CO)C(N)=O
The molecule B7 had a Kd in assay [1] of 17.1 µM. Further, in assay [2], the Ki is 10.3 µM.

B8: EpoR_pY426 peptide, alanine at pY(+6) (peptide)
chain: ASFE[pY]TILDPA-NH2
modifications: N-terminus assumed
SMILES: CC[C@H](C)[C@H](NC(=O)[C@@H](NC(=O)[C@H](Cc1ccc(OP(=O)(O)O)cc1)NC(=O)[C@H](CCC(=O)O)NC(=O)[C@H](Cc1ccccc1)NC(=O)[C@H](CO)NC(=O)[C@H](C)N)[C@@H](C)O)C(=O)N[C@@H](CC(C)C)C(=O)N[C@@H](CC(=O)O)C(=O)N1CCC[C@H]1C(=O)N[C@@H](C)C(N)=O
B8 gave a Kd in assay [1] of 16.4 µM. In assay [2], this molecule displayed a Ki of 11.3 µM.

B9: GHR_pY595 peptide V(−3)R (peptide)
chain: PRPD[pY]TSIHIV-NH2
In assay [1], B9 yielded a Kd of 9 µM. For the same molecule, in assay [2], the Ki was 20.6 µM.

B10: GHR_pY595 peptide, alanine at pY(+1) (peptide)
chain: PVPD[pY]ASIHIV-NH2
Regarding B10, the affinity in assay [1], expressed as Kd, was 1 µM. The same molecule registered an inhibitory constant (Ki) in assay [2] of 0.5 µM.

B11: GHR_pY595 peptide, alanine at pY(+3) (peptide)
chain: PVPD[pY]TSAHIV-NH2
In the case of B11, binding in assay [1] was put at a Kd of 3.7 µM. Further, the Ki in assay [2] worked out at 3.4 µM.

B12: GHR_pY595 peptide V(−3)Y (peptide)
chain: PYPD[pY]TSIHIV-NH2
For the molecule B12, in assay [1], the Kd came out at 3.3 µM. Besides, the Ki in assay [2] was determined as 3.3 µM.

B13: EpoR_pY426 peptide, alanine at pY(−1) (peptide)
chain: ASFA[pY]TILDPS-NH2
With B13, binding in assay [1] was characterised by a dissociation constant (Kd) of 21.7 µM. In assay [2], the Ki amounted to 23.5 µM.

B14: GHR_pY595 peptide, alanine at pY(+6) (peptide)
chain: PVPD[pY]TSIHIA-NH2
As for B14, binding in assay [1] was put at a Kd of 1.9 µM.

B15: GHR_pY595 peptide, alanine at pY(−3) (peptide)
chain: PAPD[pY]TSIHIV-NH2
On to B15, for which the inhibitory constant (Ki) in assay [2] came out at 3.4 µM.
